Reference: US20180016324A1 (Regeneron, published 2018)

B1: H4H25630P (antibody, V domains shown)
VH: QVQLVQSGAEVKRPGASVKVSCKASDYTFTDYGISWVRQAPGQGLEWMGWFNTYNGNTNYAQKFQGRITMTTDTSTSTAYMELRSLRSDDTAIYYCARDWGLHYFENWGQGTLVTVSS
VL: EIVLTQSPGTLSLSPGERATLSCRASQSVRNSYLAWYQQKPGQAPRLLIYGASSRDTGIPDRFSGSGSGTDFTLTISRLEPEDFAVYYCQQYGRSPWTFGQGTKVEIK
B2: H4H25633P (antibody, V domains shown)
VH: EVQLVESGGGLVQPGRSLRLSCAASGFTFDDYAIHWVRQAPGKGLEWVSGISWNSGYLGYADSVKGRFTISRDNAKNSLYLQMNSLRAEDTAFYYCAKDVAWGSVRHVFEIWGQGTMVTVSS
VL: EIVLTQSPGTLSLSPGERATLSCRASQTITGNQLAWYQQKPGQAPRLLIYFTSSRATGIPDRFSGSGSGTDFSLTISRLEPEDFAVYFCQQFGYSPWTFGQGTKVEIK
B3: H4H25626P (antibody, V domains shown)
VH: QVQLVESGGGVVQPGRSLRLSCAASGFTFSSYGMHWVRQAPGKGLEWVALIWYDGSDKHYVDSMKGRFTISRDNSKNTLYLQMNSLRADDTAVYYCARQAYYFYYGMDVWGQGTTVTVSS
VL: not shown
B4: H2aM25709N (antibody, V domains shown)
VH: EVQLVESGGGLVQPGGSLRLSCAASGFTVSSNYMSWVRQAPGKGLEWVSVIYSGGRTNYGDSVKGRFTISRDNSKNTLYLQMNSLRAEDTAVYYCARENYDFWSGDPYGWDVWGQGTTVTVSS
VL: DIQMTQSPSSLSASVGDRVTITCRASQDISNYLAWFQQKPGKAPKSLIYGASSLQRGVPSKFSGSGSGTDFTLTISSLQPEDFATYYCQQYNSYPYTFGQGTKLEIK
B5: H2aM25711N (antibody, V domains shown)
VH: B4 VH
VL: B4 VL

These binders were tested against ZIKV envelope glycoprotein (E) of strain MR766 (Uganda 1947) (Zika virus, UniProt Q32ZE1 291-790) (assay: cell-based or functional assay).

Row | Binder | neutralization IC50, Vero cells
1 | B1 | 147 pM
2 | B2 | 102 pM
3 | B3 | 159 pM

What follows are binders tested against ZIKV envelope glycoprotein (E) of strain FLR (Colombia 2015) (Zika virus) (assay: cell-based or functional assay).

Row | Binder | neutralization IC50, Vero cells
4 | B1 | 283 pM
5 | B2 | 440 pM
6 | B3 | 1090 pM

These binders were tested against ZIKV envelope glycoprotein (E) of strain PRVABC59 (Puerto Rico 2015) (Zika virus) (assay: cell-based or functional assay).

Row | Binder | neutralization IC50, Vero cells
7 | B1 | 539 pM
8 | B2 | 652 pM
9 | B3 | 1170 pM

These binders were tested against T1, ZIKV (prM80E) with a C-terminal myc-myc-hexahistidine tag (Zika virus, UniProt A0A024B7W1 104-694) (assay: SPR, mAb captured, 25C).
T1 construct: also called ZIKV (prM80E)-mmH; ZIKV-mmH

Row | Binder | Kd | koff | kon | t½
10 | B1 | 210 pM | 0.00035 s⁻¹ | 1.67e+06 M⁻¹ s⁻¹ | 33 min
11 | B2 | 1950 pM | 0.000802 s⁻¹ | 411000 M⁻¹ s⁻¹ | 14.4 min
12 | B3 | 6170 pM | 0.000905 s⁻¹ | 147000 M⁻¹ s⁻¹ | 12.8 min

Each binder was assayed against T1, ZIKV (prM80E) with a C-terminal … (assay: SPR, mAb captured, 37C).

Row | Binder | Kd | koff | kon | t½
13 | B1 | 1160 pM | 0.00229 s⁻¹ | 1.98e+06 M⁻¹ s⁻¹ | 5.1 min
14 | B2 | 7390 pM | 0.00501 s⁻¹ | 678000 M⁻¹ s⁻¹ | 2.3 min
15 | B3 | 6180 pM | 0.00187 s⁻¹ | 303000 M⁻¹ s⁻¹ | 6.2 min

The binders below were run against T2, ZIKV prM/E polyprotein on virus-like particles (VLPs) from HEK293T/17 cells (Zika virus, UniProt A0A024B7W1 123-795) (assay: MSD ECL, VLPs on plate).
T2 construct: also called ZIKV prM/E VLPs; Zika prM/E VLPs

Row | Binder | EC50
16 | B1 | 217 pM
17 | B2 | 400 pM
18 | B4 | 362 pM
19 | B5 | 468 pM
20 | B3 | 1590 pM
